± gives the standard deviation of the averaged measurements.
B1: library; a variant is named by its letters at N, in order (parent)
chain: GCUGUCACCGGUGCUUGGUACGUUAUAUUCAGCCGGUCUGAUGAGUCUNNNNNNAGACGAAACAGC

How the values were obtained:
(6R,S)-folinic acid [1] = variants of: B1; assay: normalized RNA/DNA level without ligand (relative to sTRSVctl = 100) (log10 (% of sTRSVctl)); HEK293T overexpressing SLC46A1; higher = less ribozyme self-cleavage, higher mRNA level; details: without (6R,S)-folinic acid; ligand present: no
Summary of the method: (§1)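 Library plasmids carrying ribozyme switches linked to mCherry, or to eGFP in some ligand experiments, were transfected into HEK293T at 4 µg per 6-well well, with any ligand added 1 h earlier. Seventy-two hours on, total RNA was extracted with EDTA and reverse-transcribed, amplified, barcoded and sequenced. RNA level was RNA over DNA reads normalized to a spiked-in non-cleaving sequence or to the top sequences, then scaled and log-transformed. The top set was 25 sequences, the transform was ×100 and log10, and sequences needed ≥100 DNA reads.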

(6R,S)-folinic acid [2] = variants of: B1; assay: normalized RNA/DNA level with ligand (relative to sTRSVctl = 100) (log10 (% of sTRSVctl)); HEK293T overexpressing SLC46A1; ligand concentration (+) RNA-Seq: 6 mM; higher = less ribozyme self-cleavage, higher mRNA level; details: with (6R,S)-folinic acid; ligand present: yes
Summary of the method: as §1

Variant	normalized RNA/DNA level without ligand (log10) ((6R,S)-folinic acid [1])	normalized RNA/DNA level with ligand (log10) ((6R,S)-folinic acid [2])
GCUGUCACCGGUGCUUGGUACGUUAUAUUCAGCCGGUCUGAUGAGUCUAGUGCCAGACGAAACAGC [AGUGCC]	2.072 ± 0.014	2.07 ± 0.035
GCUGUCACCGGUGCUUGGUACGUUAUAUUCAGCCGGUCUGAUGAGUCUAGUGCGAGACGAAACAGC [AGUGCG]	1.849 ± 0.017	2.01 ± 0.062
GCUGUCACCGGUGCUUGGUACGUUAUAUUCAGCCGGUCUGAUGAGUCUAGUGCAAGACGAAACAGC [AGUGCA]	1.97 ± 0.025	1.996 ± 0.016
GCUGUCACCGGUGCUUGGUACGUUAUAUUCAGCCGGUCUGAUGAGUCUAGUGCUAGACGAAACAGC [AGUGCU]	2.01 ± 0.0069	2.03 ± 0.027
GCUGUCACCGGUGCUUGGUACGUUAUAUUCAGCCGGUCUGAUGAGUCUCGUGAUAGACGAAACAGC [CGUGAU]	1.96 ± 0.0081	1.993 ± 0.0086
GCUGUCACCGGUGCUUGGUACGUUAUAUUCAGCCGGUCUGAUGAGUCUCGUGAGAGACGAAACAGC [CGUGAG]	1.97 ± 0.029	1.99 ± 0.028
GCUGUCACCGGUGCUUGGUACGUUAUAUUCAGCCGGUCUGAUGAGUCUCGUGGGAGACGAAACAGC [CGUGGG]	1.8506 ± 0.0006	1.98 ± 0.036
GCUGUCACCGGUGCUUGGUACGUUAUAUUCAGCCGGUCUGAUGAGUCUCGUGGCAGACGAAACAGC [CGUGGC]	2.02 ± 0.027	2 ± 0.073
GCUGUCACCGGUGCUUGGUACGUUAUAUUCAGCCGGUCUGAUGAGUCUUGUGCCAGACGAAACAGC [UGUGCC]	2.023 ± 0.019	2.06 ± 0.029
GCUGUCACCGGUGCUUGGUACGUUAUAUUCAGCCGGUCUGAUGAGUCUUGUGCAAGACGAAACAGC [UGUGCA]	1.9059 ± 0.0006	1.99 ± 0.04
GCUGUCACCGGUGCUUGGUACGUUAUAUUCAGCCGGUCUGAUGAGUCUCGUGCGAGACGAAACAGC [CGUGCG]	1.974 ± 0.0043	1.99 ± 0.031
GCUGUCACCGGUGCUUGGUACGUUAUAUUCAGCCGGUCUGAUGAGUCUCGUGCAAGACGAAACAGC [CGUGCA]	2.01 ± 0.022	2.03 ± 0.021
GCUGUCACCGGUGCUUGGUACGUUAUAUUCAGCCGGUCUGAUGAGUCUCGUGCCAGACGAAACAGC [CGUGCC]	2.068 ± 0.0025	2.01 ± 0.036
GCUGUCACCGGUGCUUGGUACGUUAUAUUCAGCCGGUCUGAUGAGUCUCGUGCUAGACGAAACAGC [CGUGCU]	2.05 ± 0.012	2.05 ± 0.052
GCUGUCACCGGUGCUUGGUACGUUAUAUUCAGCCGGUCUGAUGAGUCUGGUCGUAGACGAAACAGC [GGUCGU]	2.034 ± 0.015	2.029 ± 0.0084
GCUGUCACCGGUGCUUGGUACGUUAUAUUCAGCCGGUCUGAUGAGUCUAGUGGCAGACGAAACAGC [AGUGGC]	2.042 ± 0.01	2.04 ± 0.06
GCUGUCACCGGUGCUUGGUACGUUAUAUUCAGCCGGUCUGAUGAGUCUUGUGGCAGACGAAACAGC [UGUGGC]	1.97 ± 0.022	2.019 ± 0.0063
GCUGUCACCGGUGCUUGGUACGUUAUAUUCAGCCGGUCUGAUGAGUCUGGUCUGAGACGAAACAGC [GGUCUG]	2.081 ± 0.0057	2.06 ± 0.061
GCUGUCACCGGUGCUUGGUACGUUAUAUUCAGCCGGUCUGAUGAGUCUGGUCUUAGACGAAACAGC [GGUCUU]	2.02 ± 0.027	2.01 ± 0.032
GCUGUCACCGGUGCUUGGUACGUUAUAUUCAGCCGGUCUGAUGAGUCUGGUCUCAGACGAAACAGC [GGUCUC]	2.0526 ± 0.0017	2.06 ± 0.026
GCUGUCACCGGUGCUUGGUACGUUAUAUUCAGCCGGUCUGAUGAGUCUGGUCUAAGACGAAACAGC [GGUCUA]	2.01 ± 0.021	2.03 ± 0.029
